Laboratory results reported in US20120027722A1 (MEDICAL RESEARCH COUNCIL, published 2012).
Like-named read-outs stand apart in the source and are kept apart here. No end group written: not given here.

Experiments:
E2 peptide C2 = target: T1, E2 peptide C2 (Hepatitis C virus, genotype 1a (Table 5), not fully specified (residue 16, C-terminus)); test: peptide ELISA: biotinylated peptide on streptavidin plate, COS7 supernatant, normalised as percentage of H6 binding
T1 peptide: QLINTNGSWHVNGSGK

[1] = target: HCV E1E2 glycoproteins, genotype 3a isolate F4/2-35 (on HCVpp) (Hepatitis C virus genotype 3a (F4/2-35)); test: cell-based or functional assay
[2] = target: HCV E1E2 glycoproteins, isolate 2B1.1 (on HCVpp) (Hepatitis C virus genotype 2 (2B1.1)); test: cell-based or functional assay
[3] = target: HCV E1E2 glycoproteins, isolate 1B5.23 (on HCVpp) (Hepatitis C virus genotype 1 (1B5.23)); test: cell-based or functional assay
[4] = target: HCV E1E2 glycoproteins, isolate 1A20.8 (on HCVpp) (Hepatitis C virus genotype 1 (1A20.8)); test: cell-based or functional assay
[5] = target: HCV E1E2 glycoproteins, isolate 2A2.4 (on HCVpp) (Hepatitis C virus genotype 2 (2A2.4)); test: cell-based or functional assay
[6] = target: HCV E1E2 glycoproteins, genotype 2a isolate JFH1 (on HCVpp) (Hepatitis C virus genotype 2a (JFH1), UniProt Q99IB8 192-383; Q99IB8 384-750); test: cell-based or functional assay
Chain of HCV E1E2 glycoproteins, genotype 2a isolate JFH1 (on HCVpp) (Q99IB8 192-383 limits assumed, chain 1 of 2): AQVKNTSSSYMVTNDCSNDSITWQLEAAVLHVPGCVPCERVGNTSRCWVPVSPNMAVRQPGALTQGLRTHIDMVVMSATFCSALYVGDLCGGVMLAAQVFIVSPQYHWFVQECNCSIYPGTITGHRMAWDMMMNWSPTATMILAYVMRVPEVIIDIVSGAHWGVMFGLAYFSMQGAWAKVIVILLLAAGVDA
Chain of HCV E1E2 glycoproteins, genotype 2a isolate JFH1 (on HCVpp) (Q99IB8 384-750 limits assumed, chain 2 of 2): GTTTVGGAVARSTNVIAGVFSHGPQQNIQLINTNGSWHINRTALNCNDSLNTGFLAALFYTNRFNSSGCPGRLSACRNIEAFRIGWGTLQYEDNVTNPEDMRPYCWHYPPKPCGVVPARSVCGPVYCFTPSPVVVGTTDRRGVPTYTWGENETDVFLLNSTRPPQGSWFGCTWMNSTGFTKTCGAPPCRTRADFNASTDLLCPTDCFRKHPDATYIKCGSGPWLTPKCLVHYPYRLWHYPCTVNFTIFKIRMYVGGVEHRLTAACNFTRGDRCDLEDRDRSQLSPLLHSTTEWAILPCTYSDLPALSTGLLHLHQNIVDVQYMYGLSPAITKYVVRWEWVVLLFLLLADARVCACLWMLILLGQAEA

[7] = target: HCV E1E2 glycoproteins, isolate 6.5.8 (on HCVpp) (Hepatitis C virus genotype 6 (6.5.8)); test: cell-based or functional assay
[8] = target: HCV E1E2 glycoproteins, isolate 4.21.16 (on HCVpp) (Hepatitis C virus genotype 4 (4.21.16)); test: cell-based or functional assay
[9] = target: HCV E1E2 glycoproteins, isolate 5.15.11 (on HCVpp) (Hepatitis C virus genotype 5 (5.15.11)); test: cell-based or functional assay
AP33 mimotope peptide H6 [10] = target: T2, AP33 mimotope peptide H6; test: peptide ELISA: biotinylated peptide on streptavidin plate, COS7 supernatant, anti-human kappa HRP, OD 655 nm
T2 construct: captured on streptavidin plates; also called mimotope H6; H6 peptide
T2 peptide: VELRNLGGTWRPGSGK-biotin

Peptide D3 [11] = target: Peptide D3
E2 peptide B1 [12] = target: T3, E2 peptide B1 (Hepatitis C virus, genotype 2b (Table 5)); test: peptide ELISA, COS7 supernatants, normalized to H6 binding
Peptide D3 [13] = target: T4, Peptide D3; test: peptide ELISA: biotinylated peptide on streptavidin plate, COS7 supernatant, anti-human kappa HRP, OD 655 nm
T4 construct: member of the group m28

E2 peptide B1 [14] = target: T3, E2 peptide B1; test: as above
AP33 mimotope peptide H6 [15] = target: T2, AP33 mimotope peptide H6; test: as above
AP33 mimotope peptide H6 [16] = target: T2, AP33 mimotope peptide H6; test: as above
AP33 mimotope peptide H6 [17] = target: T2, AP33 mimotope peptide H6; test: as above
Peptide D3 [18] = target: T4, Peptide D3; test: as above; remark: listed apart in the source
E2 peptide B1 [19] = target: T3, E2 peptide B1; test: as above; remark: listed apart in the source
AP33 mimotope peptide H6 [20] = target: T2, AP33 mimotope peptide H6; test: as above

B1: chimeric AP33 antibody (Vh/Vl) (antibody, V domains shown)
VH: EVQLQESGPSLVKPSQTLSLTCSVTGDSITSGYWNWIRKFPGNKLEYMGYISYSGSTYYNLSLRSRISITRDTSKNQYYLQLNSVTTEDTATYYCALITTTTYAMDYWGQGTSVTVS
VL: NIVLTQSPVSLAVSLGQRATISCRASESVDGYGNSFLHWFQQKPGQPPKLLIYLASNLNSGVPARFSGSGSRTDFTLTIDPVEADDAATYYCQQNNVDPWTFGGGTKLEIK
notes: also called Vh/V1; chimeric antibody
binding result (E2 peptide C2): binds | IC50 of HCVpp infection (Huh-7, luciferase) [1]: 0.48 µg/mL | IC90 of HCVpp infection (Huh-7, luciferase) [1]: 3.2 µg/mL | IC50 of HCVpp infection (Huh-7, luciferase) [2]: 3 µg/mL | IC90 of HCVpp infection (Huh-7, luciferase) [2]: > 15 µg/mL | IC50 of HCVpp infection (Huh-7, luciferase) [3]: 1.15 µg/mL | IC90 of HCVpp infection (Huh-7, luciferase) [3]: 11 µg/mL | IC50 of HCVpp infection (Huh-7, luciferase) [4]: 1.1 µg/mL | IC90 of HCVpp infection (Huh-7, luciferase) [4]: 11.5 µg/mL | IC50 of HCVpp infection (Huh-7, luciferase) [5]: 0.88 µg/mL | IC90 of HCVpp infection (Huh-7, luciferase) [5]: 6.67 µg/mL | IC50 of HCVpp infection (Huh-7, luciferase) [6]: 1.1 µg/mL | IC90 of HCVpp infection (Huh-7, luciferase) [6]: 9.31 µg/mL | IC50 of HCVpp infection (Huh-7, luciferase) [7]: < 0.137 µg/mL | IC90 of HCVpp infection (Huh-7, luciferase) [7]: 3.7 µg/mL | IC50 of HCVpp infection (Huh-7, luciferase) [8]: < 0.137 µg/mL | IC90 of HCVpp infection (Huh-7, luciferase) [8]: 0.83 µg/mL | IC50 of HCVpp infection (Huh-7, luciferase) [9]: 0.088 µg/mL | IC90 of HCVpp infection (Huh-7, luciferase) [9]: 1.11 µg/mL | binding result (AP33 mimotope peptide H6 [10]): binds

B2: chimeric AP33 heavy chain mutant Y47F with chimeric light chain Vl (antibody, V domains shown)
VH: EVQLQESGPSLVKPSQTLSLTCSVTGDSITSGYWNWIRKFPGNKLEFMGYISYSGSTYYNLSLRSRISITRDTSKNQYYLQLNSVTTEDTATYYCALITTTTYAMDYWGQGTSVTVS
VL: NIVLTQSPVSLAVSLGQRATISCRASESVDGYGNSFLHWFQQKPGQPPKLLIYLASNLNSGVPARFSGSGSRTDFTLTIDPVEADDAATYYCQQNNVDPWTFGGGTKLEIK
notes: also called AP33 Y47F
EC50 (read off the curve) (Peptide D3 [11]): ~0.02 µg/mL | binding result (E2 peptide C2): binds | binding result (E2 peptide B1 [12]): binds

B3: chimeric AP33 heavy chain mutant Y47W with chimeric light chain Vl (antibody, V domains shown)
VH: EVQLQESGPSLVKPSQTLSLTCSVTGDSITSGYWNWIRKFPGNKLEWMGYISYSGSTYYNLSLRSRISITRDTSKNQYYLQLNSVTTEDTATYYCALITTTTYAMDYWGQGTSVTVS
VL: NIVLTQSPVSLAVSLGQRATISCRASESVDGYGNSFLHWFQQKPGQPPKLLIYLASNLNSGVPARFSGSGSRTDFTLTIDPVEADDAATYYCQQNNVDPWTFGGGTKLEIK
notes: also called AP33 Y47W
EC50 (read off the curve) (Peptide D3 [11]): ~0.03 µg/mL | binding result (E2 peptide C2): binds | binding result (E2 peptide B1 [12]): binds

B4: AP33 RH-E/RK2bc (antibody, V domains shown)
VH: QVQLQESGPGLVKPSETLSLTCTVSGDSITSGYWNWIRQPPGRALEYMGYISYSGSTYYNLSLRSRVTISRDTSKNQYSLRLSSVTAADTAMYYCALITTTTYAMDYWGQGTTVTVS
VL: EIVLTQSPSSLSASVGDRVTITCRASESVDGYGNSFLHWFQQKPGKAPKLLIYLASNLNSGVPSRFSGSGSRTDFTLTISSLQPEDFATYYCQQNNVDPWTFGQGTKLEIK
notes: COS7 supernatant
binding result (Peptide D3 [13]): binds | binding result (E2 peptide B1 [14]): no binding (tested: about 800 ng/ml) | binding result (AP33 mimotope peptide H6 [15]): binds

B5: Vh/RK2bc (antibody, V domains shown)
VH: EVQLQESGPSLVKPSQTLSLTCSVTGDSITSGYWNWIRKFPGNKLEYMGYISYSGSTYYNLSLRSRISITRDTSKNQYYLQLNSVTTEDTATYYCALITTTTYAMDYWGQGTSVTVS
VL: EIVLTQSPSSLSASVGDRVTITCRASESVDGYGNSFLHWFQQKPGKAPKLLIYLASNLNSGVPSRFSGSGSRTDFTLTISSLQPEDFATYYCQQNNVDPWTFGQGTKLEIK
notes: COS7 supernatant; also called chimeric AP33 heavy chain Vh with humanized light chain RK2bc
binding result (AP33 mimotope peptide H6 [10]): binds

B6: humanized AP33 antibody RHI/RK2bc (antibody, V domains shown)
VH: QVQLQESGPGLVKPSETLSLTCTVSGDSITSGYWNWIRKPPGRALEYMGYISYSGSTYYNLSLRSRITISRDTSKNQYSLRLSSVTAADTAMYYCALITTTTYAMDYWGQGTTVTVS
VL: EIVLTQSPSSLSASVGDRVTITCRASESVDGYGNSFLHWFQQKPGKAPKLLIYLASNLNSGVPSRFSGSGSRTDFTLTISSLQPEDFATYYCQQNNVDPWTFGQGTKLEIK
notes: RHI is RHb-h with Q39K; Human IgG1/kappa from vectors pG1D200 and pKN100, COS7 expression; also called RHI (Q39K)/RK2bc
binding result (AP33 mimotope peptide H6 [16]): binds

B7: RHA/Vl (humanized heavy chain RHA with chimeric light chain) (antibody, V domains shown)
VH: QVQLQESGPGLVKPSETLSLTCTVSGDSISSGYWNWIRQPPGRALEWIGYISYSGSTYYNLSLRSRVTISVDTSKNQFSLRLSSVTAADTAMYYCARITTTTYAMDYWGQGTTVTVS
VL: NIVLTQSPVSLAVSLGQRATISCRASESVDGYGNSFLHWFQQKPGQPPKLLIYLASNLNSGVPARFSGSGSRTDFTLTIDPVEADDAATYYCQQNNVDPWTFGGGTKLEIK
notes: Human IgG1/kappa from vectors pG1D200 and pKN100, COS7 expression
binding result (AP33 mimotope peptide H6 [10]): binds

B8: humanized AP33 antibody RHb-h/RK2b (antibody, V domains shown)
VH: QVQLQESGPGLVKPSETLSLTCTVSGDSITSGYWNWIRQPPGRALEYMGYISYSGSTYYNLSLRSRITISRDTSKNQYSLRLSSVTAADTAMYYCALITTTTYAMDYWGQGTTVTVS
VL: EIVLTQSPSSLSASVGDRVTITCRASESVDGYGNSFLHWFQQKPGKAPKLLIYLASNLNSGVPSRFSGSGSGTDFTLTISSLQPEDFATYYCQQNNVDPWTFGQGTKLEIK
EC50 (read off the curve) (AP33 mimotope peptide H6 [17]): ~0.04 µg/mL | IC50 of HCVpp infection (Huh-7, luciferase) [1]: 1.15 µg/mL | IC90 of HCVpp infection (Huh-7, luciferase) [1]: 8.3 µg/mL | IC50 of HCVpp infection (Huh-7, luciferase) [5]: 1.7 µg/mL | IC90 of HCVpp infection (Huh-7, luciferase) [5]: 20 µg/mL | IC50 of HCVpp infection (Huh-7, luciferase) [6]: 2.7 µg/mL | IC90 of HCVpp infection (Huh-7, luciferase) [6]: 22.1 µg/mL | IC50 of HCVpp infection (Huh-7, luciferase) [7]: < 0.41 µg/mL | IC90 of HCVpp infection (Huh-7, luciferase) [7]: 3.7 µg/mL | IC50 of HCVpp infection (Huh-7, luciferase) [8]: 0.33 µg/mL | IC90 of HCVpp infection (Huh-7, luciferase) [8]: 3.64 µg/mL

B9: humanized AP33 antibody RH-G/RK2bc (antibody, V domains shown)
VH: QVQLQESGPGLVKPSETLSLTCTVSGDSITSGYWNWIRQPPGRALEYMGYISYSGSTYYNLSLRSRITISRDTSKNQFSLRLSSVTAADTAMYYCALITTTTYAMDYWGQGTTVTVS
VL: EIVLTQSPSSLSASVGDRVTITCRASESVDGYGNSFLHWFQQKPGKAPKLLIYLASNLNSGVPSRFSGSGSRTDFTLTISSLQPEDFATYYCQQNNVDPWTFGQGTKLEIK
binding result (Peptide D3 [18]): binds | binding result (E2 peptide B1 [19]): no binding (tested: about 750 ng/ml) | binding result (AP33 mimotope peptide H6 [20]): binds

B10: humanized AP33 antibody RHA/RK2bc (antibody, V domains shown)
VH: QVQLQESGPGLVKPSETLSLTCTVSGDSISSGYWNWIRQPPGRALEWIGYISYSGSTYYNLSLRSRVTISVDTSKNQFSLRLSSVTAADTAMYYCARITTTTYAMDYWGQGTTVTVS
VL: EIVLTQSPSSLSASVGDRVTITCRASESVDGYGNSFLHWFQQKPGKAPKLLIYLASNLNSGVPSRFSGSGSRTDFTLTISSLQPEDFATYYCQQNNVDPWTFGQGTKLEIK
notes: Human IgG1/kappa from vectors pG1D200 and pKN100, COS7 expression; also called AP33RHA/RK2bc
binding result (AP33 mimotope peptide H6 [10]): binds

B11: RHI/Vl (humanized heavy chain RHI with chimeric light chain) (antibody, V domains shown)
VH: QVQLQESGPGLVKPSETLSLTCTVSGDSITSGYWNWIRKPPGRALEYMGYISYSGSTYYNLSLRSRITISRDTSKNQYSLRLSSVTAADTAMYYCALITTTTYAMDYWGQGTTVTVS
VL: NIVLTQSPVSLAVSLGQRATISCRASESVDGYGNSFLHWFQQKPGQPPKLLIYLASNLNSGVPARFSGSGSRTDFTLTIDPVEADDAATYYCQQNNVDPWTFGGGTKLEIK
notes: as for B7
binding result (AP33 mimotope peptide H6 [16]): binds
